Data published in US20100260678A1.

B1: Fab fragment of EM164 antibody (Fab, V domains shown)
VH: QVQLQQSGAELVKPGASVKLSCKASGYTFTSYWMHWVKQRPGQGLEWIGEINPSNGRTNYNEKFKRKATLTVDKSSSTAYMQLSSLTSEDSAVYYFARGRPDYYGSSKWYFDVWGAGTTVTVS
VL: DVLMTQTPLSLPVSLGDQASISCRSSQSIVHSNVNTYLEWYLQKPGQSPKLLIYKVSNRFSGVPDRFSGSGSGTDFTLRISRVEAEDLGIYYCFQGSHVPPTFGGGTKLEIKR
modifications: here or on the partner: biotinylated with PEO-maleimide-biotin reagent (sites not given)
B2: murine anti-IGF-I receptor antibody EM164 (antibody, V domains shown)
VH: QVQLQQSGAELVKPGASVKLSCKASGYTFTSYWMHWVKQRPGQGLEWIGEINPSNGRTNYNEKFKRKATLTVDKSSSTAYMQLSSLTSEDSAVYYFARGRPDYYGSSKWYFDVWGAGTTVTVS
VL: DVLMTQTPLSLPVSLGDQASISCRSSQSIVHSNVNTYLEWYLQKPGQSPKLLIYKVSNRFSGVPDRFSGSGSGTDFTLRISRVEAEDLGIYYCFQGSHVPPTFGGGTKLEIKR
modifications: here or on the partner: biotinylated with PEO-maleimide-biotin reagent (sites not given)

Tests used:
Conditions in all cases: remark: other sources report otherwise
[1] = biological target: T1, biotinylated full-length human IGF-I receptor, captured on streptavidin (human), P08069; assay: similar ELISA binding titration on human IGF-I receptor
[2] = biological target: T1, biotinylated full-length human IGF-I …; assay: ELISA titration on biotinylated human IGF-I receptor captured on streptavidin; non-linear regression for one-site binding
[3] = biological target: human IGF-I receptor on human tumor cells (human), P08069; assay: IGF-I displacement assay on MCF-7 cells at 4° C., 10-100 µg/mL antibody, capture ELISA of the lysate
[4] = biological target: human IGF-I receptor on human tumor cells (human), P08069; assay: IGF-I displacement assay on MCF-7 cells at 37° C., 10-100 µg/mL antibody, capture ELISA of the lysate

Binder | Kd [1] [nM] | Kd [2] [nM] | percent displacement of pre-bound biotinylated IGF-I [3] [%] | percent displacement of pre-bound biotinylated IGF-I [4] [%]
B1 | 0.3 | – | – | –
B2 | – | 0.1 | 50 | 90
